Changes are numbered by the printed parent chain. Values belong to the molecule of their own block, whether it stands above or below them.
What was measured:
[1] = target: T1, human CD70 expressed on the cell surface (human, UniProt P32970 1-193); assay: flow cytometry on 786-O cells, MFI
T1 construct: also called full length CD70 on transfected CHO cells
T1 sequence: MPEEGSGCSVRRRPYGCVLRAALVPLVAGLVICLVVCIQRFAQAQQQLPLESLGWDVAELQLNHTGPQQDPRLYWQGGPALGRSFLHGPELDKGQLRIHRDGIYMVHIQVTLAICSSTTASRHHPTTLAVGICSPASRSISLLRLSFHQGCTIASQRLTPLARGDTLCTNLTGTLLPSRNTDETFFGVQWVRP
Procedure: Binding of the anti-CD70 human monoclonal antibodies was assessed by incubating 5×10⁵ cells with antibody at a starting concentration of 10 μg/ml and serially diluting the antibody at a 1:3 dilution. The cells were washed and binding was detected with a PE-labeled anti-human IgG Ab. Flow cytometric analyses were performed using a FACSCalibur flow cytometry (Becton Dickinson, San Jose, Calif.).

HuT 78 cells = assay: ADCC fluorescence cytotoxicity assay, HuT 78; type: cell-based, human; settings: target to effector ratio 1:50
Procedure: In this example, anti-CD70 monoclonal antibodies were tested for the ability to kill CD70+ cell lines in the presence of effector cells via antibody dependent cellular cytotoxicity (ADCC) in a fluorescence cytotoxicity assay.
Human effector cells were prepared from whole blood as follows. Human peripheral blood mononuclear cells were purified from heparinized whole blood by standard Ficoll-paque separation. The cells were resuspended in RPMI1640 media containing 10% FBS and 200 U/ml of human IL-2 and incubated overnight at 37° C. The following day, the cells were collected and washed four times in culture media and resuspended at 2×10^7 cells/ml. […]
The CD70+ cell lines ARH-77 (human B lymphoblast leukemia; ATCC Accession No. CRL-1621), HuT 78 (human cutaneous lymphocyte lymphoma; ATCC Accession No. TIB-161), Raji (human B lymphocyte Burkitt's lymphoma; ATCC Accession No. CCL-86) and a negative control cell line L540 (human Hodgkin's lymphoma; DSMZ Deposit No. ACC 72) were tested for antibody specific ADCC to the human anti-CD70 monoclonal antibodies using the Delfia fluorescence emission analysis as follows. […]
In this example, a defucosylated and non-defucosylated anti-CD70 monoclonal antibody was tested for the ability to kill CD70+cells in the presence of effector cells via antibody dependent cellular cytotoxicity (ADCC) in a fluorescence cytotoxicity assay […]

activated T cells = assay: ADCC fluorescence cytotoxicity assay, activated T cells; type: cell-based, human
Procedure: In this example, a defucosylated and non-defucosylated anti-CD70 monoclonal antibody was tested for the ability to kill activated T cells in the presence of effector cells via antibody dependent cellular cytotoxicity (ADCC) in a fluorescence cytotoxicity assay.
Human Anti-CD70 monoclonal antibody 2H5 was defucosylated as described above. Human effector cells were prepared as described above. Human spleen T cells were positively selected with anti-CD3 coated magnetic beads (Purity>90%). The cells were stimulated with anti-CD3 and anti-CD28 coated beads and 25 ng/ml IL-2 in Iscove's media+10% heat inactivated FCS for 6 days. Cells were collected and assayed for viability by propidium iodide incorporation (60% viable) and live cells were gated and analyzed for CD70 expression (˜65% CD70+ on live cells) prior to inclusion in ADCC assays.
The activated T cells were tested for antibody specific ADCC to the defucosylated and non-defucosylated human anti-CD70 monoclonal antibody 2H5 using the Delfia fluorescence emission analysis as follows. […] Following a 2100 rpm pulse spin and one hour incubation at 37° C., the supernatants were collected, quick spun again and 20 μl of supernatant was transferred to a flat bottom plate, to which 180 μl of Eu solution (Perkin Elmer, Wellesley, Mass.) was added and read in a Fusion Alpha TRF plate reader (Perkin Elmer). […]

EC50 [1]: 6.93 nM
B1: anti-CD70 human monoclonal antibody 69A7 (antibody, V domains shown)
VH: QVQLQESGPGLVKPSETLSLTCTVSGGSVSSDYYYWSWIRQPPGKGLEWLGYIYYSGSTNYNPSLKSRVTISVDTSKNQFSLKLRSVTTADTAVYYCARGDGDYGGNCFDYWGQGTLVTVSS
VL: EIVLTQSPATLSLSPGERATLSCRASQSVSSYLAWYQQKPGQAPRLLIFDASNRATGIPARFSGSGSGTDFTLTISSLEPEDFAVYYCQQRSNWPLTFGGGTKVEIK
notes: Human IgG from hybridoma; also called HuMAb 69A7; FITC-conjugated 69A7

B2: 2H5 NF: 2H5 HuMAb lacking fucosyl residues, expressed in CHO cell line Ms704-PF (antibody, V domains shown)
VH: QVQLVESGGGVVQPGRSLRLSCAASGFTFSSYIMHWVRQAPGKGLEWVAVISYDGRNKYYADSVKGRFTISRDNSKNTLYLQMNSLRAEDTAVYYCARDTDGYDFDYWGQGTLVTVSS
VL: B1 VL with F49Y, S92T
ADCC, % lysis of HuT 78 (HuT 78 cells): increased percentage of specific lysis
antibody mediated cytotoxicity with addition of anti-CD16 antibody (activated T cells; activated T cells): blocked
ADCC, % specific lysis of activated T cells (activated T cells; target to effector ratio 1:50): increased percentage of specific lysis
